We go through 1 molecule from patent US20100260754A1 (Eli Lilly, published 2010).

Experiment [1] has as its target T1, human DKK-1 (SEQ ID NO: 29) (human, UniProt O94907 32-266).
T1 sequence: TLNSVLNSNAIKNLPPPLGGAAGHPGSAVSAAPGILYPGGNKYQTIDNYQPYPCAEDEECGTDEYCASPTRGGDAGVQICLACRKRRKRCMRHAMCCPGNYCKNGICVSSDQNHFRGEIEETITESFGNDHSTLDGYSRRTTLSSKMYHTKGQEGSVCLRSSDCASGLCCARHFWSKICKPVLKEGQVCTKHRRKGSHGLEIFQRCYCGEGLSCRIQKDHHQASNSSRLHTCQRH
The experiment is described as follows: cell-based or functional assay.

For experiment [2], the target named is T2, cynomolgus DKK-1 (SEQ ID NO: 30) (cynomolgus, UniProt O94907 32-265 (human entry), limits assumed).
T2 chain: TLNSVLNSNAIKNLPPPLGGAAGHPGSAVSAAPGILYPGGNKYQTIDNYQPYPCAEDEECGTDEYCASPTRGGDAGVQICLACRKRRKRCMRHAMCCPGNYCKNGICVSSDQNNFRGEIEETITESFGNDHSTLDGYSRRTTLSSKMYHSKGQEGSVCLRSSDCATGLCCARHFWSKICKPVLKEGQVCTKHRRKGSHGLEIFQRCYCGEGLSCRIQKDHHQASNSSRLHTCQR
The experiment is described as follows: cell-based or functional assay.

In experiment [3] the target is T3, rat Dkk-1 (SEQ ID NO: 31) (rat, UniProt O54908 32-272 (mouse entry), limits assumed).
T3 chain: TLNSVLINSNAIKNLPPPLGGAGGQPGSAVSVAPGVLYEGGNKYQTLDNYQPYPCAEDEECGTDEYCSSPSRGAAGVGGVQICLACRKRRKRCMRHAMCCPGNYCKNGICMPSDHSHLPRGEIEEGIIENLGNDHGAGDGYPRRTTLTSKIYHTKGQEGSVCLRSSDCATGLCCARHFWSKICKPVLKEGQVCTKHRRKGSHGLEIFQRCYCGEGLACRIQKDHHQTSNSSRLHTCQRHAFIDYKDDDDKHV
Put plainly: cell-based or functional assay.

Experiment [4] addresses T4, rabbit DKK-1 (SEQ ID NO: 32) (rabbit, UniProt O94907 32-265 (human entry), limits assumed).
T4 chain: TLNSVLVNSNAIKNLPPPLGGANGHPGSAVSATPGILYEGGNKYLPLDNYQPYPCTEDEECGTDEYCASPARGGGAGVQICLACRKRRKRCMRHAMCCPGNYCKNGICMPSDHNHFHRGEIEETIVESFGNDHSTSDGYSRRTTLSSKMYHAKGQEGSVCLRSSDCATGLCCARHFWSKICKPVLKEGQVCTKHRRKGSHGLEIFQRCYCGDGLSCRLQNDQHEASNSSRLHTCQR
The experiment is described as follows: cell-based or functional assay.

Experiment [5] has as its target T1, human DKK-1 (SEQ ID NO: 29). The experiment is described as follows: KinExA solution equilibrium, 37 C, His-tagged DKK-1. How it is done: (§1) To establish a binding equilibrium, a constant concentration of antibody is mixed with varying concentrations of His-tagged DKK-1 (SEQ ID NO:29, SEQ ID NO:30, SEQ ID NO:31, SEQ ID NO:32, or SEQ ID NO:33) (1 nM-1 pM range) in PBS (pH 7.4)+1 mg/mL bovine serum albumin (“BSA”) or buffer alone and incubated for several days at 37° C. Two sets of binding reactions are set up, one set at low concentration of antibody (3 pM) and one set at high concentration of antibody (30 or 50 pM).
(§2) After establishing equilibrium, a KinExA 3000 instrument (Sapidyne Inst. Inc.) is used to probe for the fraction of ‘free’ (unbound) antibody. Briefly, His-tagged DKK-1 is covalently coupled to NHS-activated Sepharose 4 Fast Flow beads (GE Healthcare) which are packed by the instrument to create a small column. The pre-equilibrated mixtures of antibody+His-tagged DKK-1 are passed over the beads to capture only free antibody. The amount of free antibody captured is proportional to the free concentration in the equilibrated samples, and is detected by injection of a fluorescently labeled secondary antibody. Data sets from low and high concentrations of antibody are fit globally using n-curve analysis in the KinExA software. This fitting returns a Kd value as well as the 95% confidence interval.
Background: In KinExA the mixture passes briefly over coated beads that capture the unbound partner.

Experiment [6] deals with T2, cynomolgus DKK-1 (SEQ ID NO: 30). The experiment is described as above. The method, then:
as §1, §2

The target in experiment [7] is T3, rat Dkk-1 (SEQ ID NO: 31). The description is as above. How it is done:
as §1, §2

For experiment [8], the target named is T5, mouse DKK-1 (SEQ ID NO: 33) (mouse, UniProt O54908 32-272).
T5 construct: also called His-tagged DKK-1; Murine
T5 sequence: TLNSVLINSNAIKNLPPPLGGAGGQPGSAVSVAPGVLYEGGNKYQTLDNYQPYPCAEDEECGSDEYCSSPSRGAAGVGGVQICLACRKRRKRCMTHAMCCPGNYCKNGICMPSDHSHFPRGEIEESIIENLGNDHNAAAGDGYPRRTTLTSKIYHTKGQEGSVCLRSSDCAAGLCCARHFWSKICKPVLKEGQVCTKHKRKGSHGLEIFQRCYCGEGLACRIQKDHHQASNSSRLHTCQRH
The experiment is described as above. The method, then:
as §1, §2

Experiment [9] has as its target T4, rabbit DKK-1 (SEQ ID NO: 32). Described as above. How it is done: as §1, §2

Broadly, the Kd is a measure of binding affinity in units of concentration. A lower Kd goes with tighter binding.

B1: Antibody II (antibody, human IgG4 S228P, kappa, F234A L235A, V domains shown)
VH: EVQLVESGGGLVQPGGSLRLSCAASGFTFSSYTMSWVRQAPGKGLEWVATISGGGFGTYYPDSVKGRFTISRDNAKNSLYLQMNSLRAEDTAVYYCARPGYNNYYFDIWGQGTTVTVSS
VL: EIVLTQSPATLSLSPGERATLSCHASDSISNSLHWYQQKPGQAPRLLIYYARQSIQGIPARFSGSGSGTDFTLTISSLEPEDFAVYYCQQSESWPLHFGGGTKVEIKR
notes: also called human engineered DKK-1 antibody
Turning to B1, the “EC50, block of DKK-1-mediated inhibition of alkaline phosphatase in C2C12 cells” value in [1] turned out to be 9.8 nM; in experiment [2] it was 6.4 nM; in [3], 2.9 nM; in experiment [4], 6 nM. Also, the dissociation constant Kd was 0.0033 nM in experiment [5]; 0.014 nM in experiment [6]; 0.0084 nM in experiment [7]; 0.007 nM in [8]; 0.017 nM in [9].
